This is an account of results in article PMC6770254.

“And” between values parts separate entries of the source, which are not always exact repeats. Equal values may be shown once.

Holding throughout (experiment): crystal structure; crystals from 2.2 M DL-malic acid, pH 6.5, with or without 5 mM PPi (hanging drop); data at 100 K; oligomers read from the asymmetric unit and the crystal packing
In assay [1] the target is Acinetobacter baumannii pyrophosphatase K30R variant (Acinetobacter baumannii) (UniProt V5VHL7).
For assay [2], the target named is Acinetobacter baumannii pyrophosphatase K149R variant (Acinetobacter baumannii) (UniProt V5VHL7).
Assay [3] addresses Acinetobacter baumannii pyrophosphatase, wild type (Acinetobacter baumannii) (UniProt V5VHL7).

As for “Acinetobacter baumannii pyrophosphatase K30R variant (from UniProt V5VHL7 5-174) (enzyme)”, the stoichiometry N in assay [1] was 6 and 3. In turn, “Acinetobacter baumannii pyrophosphatase K149R variant (from UniProt V5VHL7 5-174) (enzyme)” registered a stoichiometry N in assay [2] of 6.

Consider “Acinetobacter baumannii pyrophosphatase, wild type (from UniProt V5VHL7 5-174) (enzyme)”, for which the stoichiometry N in assay [3] is 6.

Broadly, the stoichiometry N is the number of molecules, sites or subunits per partner or assembly.
